# According to patent EP1902729A1:
# Molecular target: HIF2α protein
# Test: cell-based or functional assay
substance,measurement,value
Int6-ΔC (mutant in which the Int6 PINT (PCI) domain has been deleted),expression and transcriptional activity of HIF2α,2 fold
